116 sequences from the supplement of paper PMC10724198 can be followed below.

± gives the standard deviation of the averaged measurements.
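Further: PSI is a weighted mean of sequencing reads over stability bins, variants kept only with over 10 reads, mCherry proximal and sfGFP distal, peptide attached via GGGS linker.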

For this data set, the system named is Saccharomyces cerevisiae. Nature of the data set: protein stability index of tFT-peptide fusion (C-terminal peptide) (PSI (0-1 scale)); higher = more stable (slower turnover). The conditions noted are these: genetic background: wild type; temperature: 30 C.
TCFPDLLVLPAR: the protein stability index is 0.7008 ± 0.0022.
As for TCFWFTCSDPFF, the protein stability index was 0.773 ± 0.096.
In the case of TCLWVCAWGFGG it was 0.716 ± 0.011.
As to TCVLPDLNTRWS, the protein stability index worked out at 0.685 ± 0.02.
In the case of TDCAPRGGRWKR it was 0.656 ± 0.14.
As for TDFPRDFPPVDL, the protein stability index turned out to be 0.7526 ± 0.0029.
In the case of TEVWSGFARWGG it was 0.675 ± 0.046; in that of TFFFLGSVFSLA, 0.638 ± 0.043; in that of TFFLPPSCFYPP, 0.616 ± 0.051.
Next, TFNRIFGNALPG: 0.688 ± 0.044.
Next, TFPATSLPSFSL: 0.6861 ± 0.0031; TFPKKKGLLNIS: 0.636 ± 0.028; TFRKMEKKKDGG: 0.652 ± 0.018.
TGAPSKQYDRFL registered a protein stability index of 0.747 ± 0.045.
In the case of TGEFILLFSWFV it was 0.584 ± 0.0024; in that of TGEIREEWRKNI, 0.54 ± 0.03.
Next, TGHFSTTPPRPH: 0.714 ± 0.077; TGKTHSGNKYER: 0.684 ± 0.059; TGSLLWGCFALL: 0.623 ± 0.054.
In the case of TGVSTRVTHTAP it was 0.707 ± 0.014; in that of TGYDERSRFIEI, 0.68 ± 0.1; in that of THGMFVFSPPWF, 0.785 ± 0.1.
For the sequence THHTPKILNTKR, the protein stability index was found to be 0.708 ± 0.063.
Take THPPLTSRSSPP: the protein stability index was 0.654 ± 0.044.
In turn, THPPSFHPSRAP showed a protein stability index of 0.693 ± 0.092.
THSLCIKPRTVV showed a protein stability index of 0.517 ± 0.0056.
Next, THSTLRRFSGYS: 0.7005 ± 0.001; TIIEHYMMINEK: 0.692 ± 0.064.
Next, TILPWCLFLVAD: 0.6 ± 0.0098; TISRIQTNINKK: 0.742 ± 0.18; TKEFKKTNTTGY: 0.7406 ± 0.0039.
In the case of TKFKPKILEKCT it was 0.686 ± 0.021; in that of TKIKETTKKKQL, 0.522 ± 0.059.
Consider TKKKKKEKGDST, for which the protein stability index stood at 0.702 ± 0.1.
In the case of TKQKKIEDEEII it was 0.6314 ± 0.0017; in that of TKSQGGLTWASC, 0.626 ± 0.011; in that of TLAKSSQNLMCV, 0.744 ± 0.085.
In the case of TLAPPLPPPPLV it was 0.731 ± 0.013; in that of TLAPVRAFVEFR, 0.656 ± 0.022; in that of TLCLPPPVAWQH, 0.6544 ± 0.0047.
In the case of TLDNEKKKKRNT it was 0.674 ± 0.022.
Turning to TLDTCVPGANTF, the protein stability index is 0.7127 ± 0.001.
In the case of TLGGEITYKVKT it was 0.684 ± 0.034.
As for TLRRYSFTKKNL, the protein stability index was found to be 0.737 ± 0.069.
Next, TLRVQNKRKSEE: 0.663 ± 0.028; TLSLILPQLPPL: 0.643 ± 0.071.
For the sequence TLSPGYTFPLSL, the protein stability index worked out at 0.743 ± 0.023.
Next, TLTDCRKKCGRV: 0.715 ± 0.097; TLTPPPSTSLPP: 0.645 ± 0.067.
TLTSPFGSPTWD showed a protein stability index of 0.638 ± 0.31.
For the sequence TLYHWELEPRNP, the protein stability index stood at 0.664 ± 0.013.
Next, TLYLCALPALSR: 0.615 ± 0.0075; TNARDPPGPTPH: 0.586 ± 0.06.
On to TNFGALNFDYAC, for which the protein stability index was determined as 0.772 ± 0.028.
In the case of TNFSRCFLFRSW it was 0.629 ± 0.025; in that of TNILMHGHKRSC, 0.676 ± 0.13; in that of TNRIRGTARKVK, 0.67 ± 0.055.
Next, TNSKLTKERTEI: 0.699 ± 0.049; TNSVGCRIGGKQ: 0.646 ± 0.02.
In the case of TNTRKIINMEKQ it was 0.717 ± 0.077.
TNVPVLTLMVYL displayed a protein stability index of 0.591 ± 0.089.
Next, TPASCHQFGYQH: 0.695 ± 0.026; TPASPSPPPRPP: 0.625 ± 0.019.
The sequence TPGDAVICSFYI yielded a protein stability index of 0.642 ± 0.015.
In the case of TPGGDPLAPRQS it was 0.641 ± 0.061; in that of TPKETGNNNMPN, 0.677 ± 0.09.
In the case of TPMGFSRFLLSL it was 0.553 ± 0.03; in that of TPPFPSPLPPPS, 0.753 ± 0.013.
Next, TPPLCAPPLPPP: 0.7022 ± 0.0054; TPPPPAPPHPPP: 0.62 ± 0.036.
On to TPPPPPPPLRAT, for which the protein stability index was 0.638 ± 0.038.
In the case of TPPRVYPLLRTS it was 0.682 ± 0.016; in that of TPPVHLPPSSFS, 0.744 ± 0.0023; in that of TPQPPPHSTYRC, 0.702 ± 0.031.
In the case of TPRPPPSSFLSL it was 0.679 ± 0.05.
Next, TPRYVGLIKINK: 0.676 ± 0.03; TPSDHRRLRGSN: 0.689 ± 0.045.
TPSLPAPGPPSP displayed a protein stability index of 0.735 ± 0.11.
Next, TPSPHPRYRASH: 0.703 ± 0.026; TPSPLAILSSTC: 0.6888 ± 0.0047.
Turning to TPWIRGRTHPGR, the protein stability index was 0.705 ± 0.016.
TQLNTLSTINRT returned a protein stability index of 0.71 ± 0.11.
In turn, TQNRGLSSFRAF yielded a protein stability index of 0.691 ± 0.035.
Next, TQVGLGSFYSLG: 0.697 ± 0.079; TRALPIVLAVGP: 0.59 ± 0.026.
In the case of TRDTLNLMYKRL, the protein stability index turned out to be 0.703 ± 0.046.
In the case of TRDVPVTPQWGY it was 0.671 ± 0.076; in that of TREITDAKVGNE, 0.7145 ± 0.0015; in that of TRERRQAAGGGT, 0.665 ± 0.055.
In the case of TRGDCFAVRKAR it was 0.702 ± 0.027; in that of TRLTSSGVGSVP, 0.683 ± 0.1; in that of TRLVRQLNNNLE, 0.667 ± 0.013.
Next, TRNRKEWKIVIL: 0.594 ± 0.042.
The sequence TRNTNYNKKIKV gave a protein stability index of 0.6801 ± 0.0022.
As for TRPCFSGFNSPF, the protein stability index turned out to be 0.6545 ± 0.0019.
Regarding TRPSPHRPSAST, the protein stability index was 0.678 ± 0.054.
Next, TRSRAQTEAHRR: 0.669 ± 0.032.
In turn, TRTTTQKNNATT gave a protein stability index of 0.717 ± 0.037.
As to TSHSSSGQAGKI, the protein stability index was determined as 0.73 ± 0.033.
Next, TSIDVLKCVYIQ: 0.5549 ± 0.0054; TSKGLGSRSAHP: 0.665 ± 0.044; TSLALAFTFAIP: 0.703 ± 0.051.
Next, TSPPHLPASSHS: 0.689 ± 0.014; TSQHLQNHYKKI: 0.701 ± 0.0035; TSRCQIGIALGG: 0.695 ± 0.12.
Next, TSRGGFCLGGVF: 0.729 ± 0.018; TSRLPPSPPPPP: 0.696 ± 0.14; TSRSPLCTETIP: 0.736 ± 0.0074.
For TSTGARTMFNPV, the protein stability index was 0.646 ± 0.061.
Next, TSVVLPGPAVSR: 0.732 ± 0.049.
In the case of TSWTTVYSSLLT it was 0.672 ± 0.088.
Next, TTACLLERFTRV: 0.664 ± 0.028; TTDKNEAHVYSR: 0.6931 ± 0.00098.
On to TTGGRGARVGGR, for which the protein stability index turned out to be 0.755 ± 0.08.
Next, TTILCVARHIPH: 0.759 ± 0.089; TTLFLPAGYACR: 0.707 ± 0.037.
